Publication PMC11813103, “Interaction of cardiac leiomodin with the native cardiac thin filament” (PLOS Biology, 2025)

B1: Lmod2[451–492] (peptide)
peptide: PLPEKKLITRNIAEVIKQQESAQRALQNGQRKKKGKKVKKQP
notes: also called C-terminal Lmod2 fragment after the polyP region; source: synthetic peptide (Tufts University Core Facility)
B2: Lmod2[518–543] (peptide)
peptide: STPQRSVHENLMEAIRGSSIRQLRRV
notes: also called Lmod2 fragment containing the WH2 domain; source: synthetic peptide (Tufts University Core Facility)
B3: Lmod2[387–426] (peptide)
peptide: WQRGTPGSSPYASPRQSPWSSPKVSKKVHTGRSRPPSPVA
notes: also called C-terminal Lmod2 fragment between the LRR domain and the polyP region; source: synthetic peptide (Tufts University Core Facility)

Each binder was assayed against G-actin (UniProt P68135 1-377) (assay: native gel or EMSA; 9% polyacrylamide, 10% glycerol, no SDS; fragments mixed with 5 μM G-actin at 1:2, 1:1, 1.5:1 and 2:1 molar ratios (Lmod2[518–543] at 2:1 only); densitometry of the actin band). Details: both partners purified.

percent of the actin in complex at a 2:1 fragment to actin molar ratio [%]	Binder
~60	B1
~90	B2
~70	B3
